From patent US20230235027A1 (US Dept. of Health and Human Services, published 2023)
Residue numbers refer to the chain shown, from its start. Where “and” joins values, the source holds several entries; their conditions need not be identical. Equal values may be shown once. Read-outs that look alike come from different tables or passages of the source.

Tests used:
[1] = biological target: T1, Biotinylated SARS-CoV-2 S protein RBD with a C-terminal AviTag (SARS-CoV-2, UniProt P0DTC2 319-541)
[2] = biological target: T2, SARS-CoV-2 spike protein receptor binding domain (RBD), recombinant (SARS-CoV-2, UniProt P0DTC2 319-541)
[3] = biological target: T1, Biotinylated SARS-CoV-2 S protein RBD …; remark: listed apart in the source
[4] = biological target: T2, SARS-CoV-2 spike protein receptor …; remark: listed apart in the source
[5] = biological target: T2, SARS-CoV-2 spike protein receptor …; experiment: competition ELISA, RBD coated, competitor biotinylated ACE2
[6] = biological target: T2, SARS-CoV-2 spike protein receptor …; experiment: direct binding to RBD wild type (FIG. 7B); format not described further
[7] = biological target: T2, SARS-CoV-2 spike protein receptor …; experiment: kinetic measurement, method not stated; table row prototype RBD
[8] = biological target: T3, SARS-CoV-1 spike protein RBD (SARS-CoV-1, UniProt P59594 306-527); experiment: ELISA: coated SARS-CoV-1 RBD, NIH-CoVnb-112 titrated, absorbance 450 nm
T3 construct: domain: RBD

[9] = biological target: T2, SARS-CoV-2 spike protein receptor …; experiment: ELISA: coated SARS-CoV-2 RBD, NIH-CoVnb-112 titrated, absorbance 450 nm
[10] = biological target: T1, Biotinylated SARS-CoV-2 S protein RBD …; experiment: biolayer interferometry (FIG. 7C)

B1: NIH-CoVnb-103 (VHH, not shown: large carriers)
VHH: DVQLQESGGGLVQPGGSLRLSCAASGLTLDYYTIGWFRQAPGKEREGVSCISSSDDSTYYADSVKGRFTISRDNAKNTVYLQMNSLKPEDTAVYYCATAPGTYYKGSYYPMCHYYGMDYWGKGTQVTVSS
What does the source list for B1?
Kd [1]: 9.43 nM; koff [1]: 0.00286 s⁻¹; kon [1]: 303000 M⁻¹ s⁻¹

B2: NIH-CoVnb-108 (VHH, not shown: large carriers)
VHH: DVQLQESGGGLVQPGGSLRLSCAASGFTLDYYAIGWFRQAPGKEREGVSCISNSGGSTYYADSVKGRFTTSRDNAKNTVYLQMNSLKPEDTAVYYCAAVPSTYYSGSYYYTCHPGGMDYWGKGTQVTVSS
Which results are given for B2?
Kd [1]: 26.6 nM; koff [1]: 0.00109 s⁻¹; kon [1]: 40900 M⁻¹ s⁻¹

B3: NIH-CoVnb-112 (VHH)
VHH: B2 VHH with F27L, N53S, G55D, S107T
For B3, which Kd [2] is on record?
Its Kd is 2.1 nM.

And the Kd [3]?
Its Kd is 4.9 nM.

And the koff [3]?
Its koff is 0.000654 s⁻¹.

What about the kon [3] of the same binder?
The kon was 130000 M⁻¹ s⁻¹.

And the koff [4]?
The koff was 0.000295 s⁻¹.

What about the kon [4] of the same binder?
The kon was 141000 M⁻¹ s⁻¹.

What about the EC50 [5] of the same binder?
Its EC50 is 0.02 µg/mL and 1.11 nM.

And the EC50 [6]?
The EC50 was about 0.01 µg/mL.

And the koff [7]?
The koff was 0.000236 s⁻¹.

What about the kon [7] of the same binder?
The kon was 223000 M⁻¹ s⁻¹.

Does B3 bind [8]?
Result: no binding (tested: about 5 µg/mL)

What about the “EC50 (read off the curve)” value [9] of the same binder?
Its value is about 0.01 µg/mL.

B4: NIH-CoVnb-109 (VHH, not shown: large carriers)
VHH: B2 VHH with P14S, S52T, G55D, A98S, V99F
For B4, which Kd [1] is on record?
Its Kd is 58.5 nM.

What about the koff [1] of the same binder?
Its koff is 0.00188 s⁻¹.

What about the kon [1] of the same binder?
Its kon is 32100 M⁻¹ s⁻¹.

B5: NIH-CoVnb-113 (VHH)
VHH: B2 VHH with F27L, N53S, G55D, S107T, Q125L
With B5 as the binder, how does the Kd [1] read?
Its Kd is 8.19 nM.

And the koff [1]?
Its koff is 0.000804 s⁻¹.

And the kon [1]?
Its kon is 98200 M⁻¹ s⁻¹.

B6: VHH72 (VHH)
VHH: QVQLQESGGGLVQAGGSLRLSCAASGRTFSEYAMGWFRQAPGKEREFVATISWSGGSTYYTDSVKGRFTISRDNAKNTVYLQMNSLKPDDTAVYYCAAAGLGTVVSEWDYDYDYWGQGTQVTVSS
Does B6 bind [10]?
Result: binds
